# Results reported in IntAct's records for PubMed 29892012.
# B1: E3 ubiquitin-protein ligase LNX (Homo sapiens), Q8TBB1 (parent)
# chain: MNQPESANDPEPLCAVCGQAHSLEENHFYSYPEEVDDDLICHICLQALLDPLDTPCGHTYCTLCLTNFLVEKDFCPMDRKPLVLQHCKKSSILVNKLLNKLLVTCPFREHCTQVLQRCDLEHHFQTSCKGASHYGLTKDRKRRSQDGCPDGCASLTATAPSPEVSAAATISLMTDEPGLDNPAYVSSAEDGQPAISPVDSGRSNRTRARPFERSTIRSRSFKKINRALSVLRRTKSGSAVANHADQGRENSENTTAPEVFPRLYHLIPDGEITSIKINRVDPSESLSIRLVGGSETPLVHIIIQHIYRDGVIARDGRLLPGDIILKVNGMDISNVPHNYAVRLLRQPCQVLWLTVMREQKFRSRNNGQAPDAYRPRDDSFHVILNKSSPEEQLGIKLVRKVDEPGVFIFNVLDGGVAYRHGQLEENDRVLAINGHDLRYGSPESAAHLIQASERRVHLVVSRQVRQRSPDIFQEAGWNSNGSWSPGPGERSNTPKPLHPTITCHEKVVNIQKDPGESLGMTVAGGASHREWDLPIYVISVEPGGVISRDGRIKTGDILLNVDGVELTEVSRSEAVALLKRTSSSIVLKALEVKEYEPQEDCSSPAALDSNHNMAPPSDWSPSWVMWLELPRCLYNCKDIVLRRNTAGSLGFCIVGGYEEYNGNKPFFIKSIVEGTPAYNDGRIRCGDILLAVNGRSTSGMIHACLARLLKELKGRITLTIVSWPGTFL
# partner: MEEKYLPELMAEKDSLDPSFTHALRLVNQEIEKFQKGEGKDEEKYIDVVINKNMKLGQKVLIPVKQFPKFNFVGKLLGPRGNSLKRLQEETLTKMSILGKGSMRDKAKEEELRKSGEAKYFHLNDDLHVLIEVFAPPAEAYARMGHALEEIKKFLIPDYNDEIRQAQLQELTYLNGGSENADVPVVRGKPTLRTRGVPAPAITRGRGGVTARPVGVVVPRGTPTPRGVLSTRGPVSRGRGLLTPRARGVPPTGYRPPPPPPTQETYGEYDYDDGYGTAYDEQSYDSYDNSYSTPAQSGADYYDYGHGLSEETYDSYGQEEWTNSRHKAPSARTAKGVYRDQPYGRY
# B2: E3 ubiquitin-protein ligase LNX (Homo sapiens), Q8TBB1 (parent)
# chain: B1 chain
# partner: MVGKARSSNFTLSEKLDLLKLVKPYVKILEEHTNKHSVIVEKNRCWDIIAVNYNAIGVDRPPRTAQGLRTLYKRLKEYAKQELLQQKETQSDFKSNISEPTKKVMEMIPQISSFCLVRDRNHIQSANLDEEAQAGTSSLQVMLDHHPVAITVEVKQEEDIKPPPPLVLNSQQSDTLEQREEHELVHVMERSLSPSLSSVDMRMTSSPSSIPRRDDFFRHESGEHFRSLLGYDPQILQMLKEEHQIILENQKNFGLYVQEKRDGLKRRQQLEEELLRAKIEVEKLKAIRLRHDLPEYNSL
# B3: E3 ubiquitin-protein ligase LNX (Homo sapiens), Q8TBB1 (parent)
# chain: B1 chain
# partner: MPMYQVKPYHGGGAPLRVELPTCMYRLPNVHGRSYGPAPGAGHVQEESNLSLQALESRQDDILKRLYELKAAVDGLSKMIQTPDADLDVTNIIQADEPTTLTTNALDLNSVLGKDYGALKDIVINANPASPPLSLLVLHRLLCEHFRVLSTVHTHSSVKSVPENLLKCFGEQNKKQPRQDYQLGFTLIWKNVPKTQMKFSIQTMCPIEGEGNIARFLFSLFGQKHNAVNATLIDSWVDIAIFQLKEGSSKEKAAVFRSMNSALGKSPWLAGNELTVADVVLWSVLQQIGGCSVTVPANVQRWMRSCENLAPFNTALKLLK
# B4: E3 ubiquitin-protein ligase LNX (Homo sapiens), Q8TBB1 (parent)
# chain: B1 chain
# partner: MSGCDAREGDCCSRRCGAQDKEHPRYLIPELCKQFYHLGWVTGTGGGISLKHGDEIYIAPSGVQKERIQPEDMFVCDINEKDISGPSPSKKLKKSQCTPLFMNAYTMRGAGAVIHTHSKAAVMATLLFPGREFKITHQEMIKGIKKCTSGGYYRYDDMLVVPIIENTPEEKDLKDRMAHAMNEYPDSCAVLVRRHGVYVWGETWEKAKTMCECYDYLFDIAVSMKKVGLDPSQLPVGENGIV
# B5: E3 ubiquitin-protein ligase LNX (Homo sapiens), Q8TBB1 (parent)
# chain: B1 chain
# partner: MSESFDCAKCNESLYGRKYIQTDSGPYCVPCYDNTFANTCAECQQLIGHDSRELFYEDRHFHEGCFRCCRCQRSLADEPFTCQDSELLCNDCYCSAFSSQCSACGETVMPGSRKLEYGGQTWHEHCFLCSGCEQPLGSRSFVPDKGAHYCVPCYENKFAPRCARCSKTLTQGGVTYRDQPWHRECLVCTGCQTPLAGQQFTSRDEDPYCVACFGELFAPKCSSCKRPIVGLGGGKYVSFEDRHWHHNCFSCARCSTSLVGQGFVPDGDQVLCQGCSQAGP
# B6: E3 ubiquitin-protein ligase LNX (Homo sapiens), Q8TBB1 (parent)
# chain: B1 chain
# partner: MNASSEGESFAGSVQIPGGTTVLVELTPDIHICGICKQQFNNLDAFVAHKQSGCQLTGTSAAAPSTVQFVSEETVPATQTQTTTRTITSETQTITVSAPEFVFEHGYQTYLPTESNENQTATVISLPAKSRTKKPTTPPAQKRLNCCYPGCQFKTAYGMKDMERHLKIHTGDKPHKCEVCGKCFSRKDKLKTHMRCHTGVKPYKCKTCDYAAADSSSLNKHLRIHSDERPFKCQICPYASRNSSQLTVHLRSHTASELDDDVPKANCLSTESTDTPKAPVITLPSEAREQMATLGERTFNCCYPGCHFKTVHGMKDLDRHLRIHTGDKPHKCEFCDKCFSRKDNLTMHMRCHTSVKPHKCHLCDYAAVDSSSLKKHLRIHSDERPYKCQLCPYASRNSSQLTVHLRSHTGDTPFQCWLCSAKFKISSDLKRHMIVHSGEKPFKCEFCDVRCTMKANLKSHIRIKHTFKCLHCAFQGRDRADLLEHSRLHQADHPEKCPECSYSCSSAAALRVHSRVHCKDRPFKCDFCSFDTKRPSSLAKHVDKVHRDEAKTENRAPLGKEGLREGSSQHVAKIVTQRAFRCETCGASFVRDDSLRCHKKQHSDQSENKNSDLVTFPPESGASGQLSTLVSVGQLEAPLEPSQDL
# B7: E3 ubiquitin-protein ligase LNX (Homo sapiens), Q8TBB1 (parent)
# chain: B1 chain
# partner: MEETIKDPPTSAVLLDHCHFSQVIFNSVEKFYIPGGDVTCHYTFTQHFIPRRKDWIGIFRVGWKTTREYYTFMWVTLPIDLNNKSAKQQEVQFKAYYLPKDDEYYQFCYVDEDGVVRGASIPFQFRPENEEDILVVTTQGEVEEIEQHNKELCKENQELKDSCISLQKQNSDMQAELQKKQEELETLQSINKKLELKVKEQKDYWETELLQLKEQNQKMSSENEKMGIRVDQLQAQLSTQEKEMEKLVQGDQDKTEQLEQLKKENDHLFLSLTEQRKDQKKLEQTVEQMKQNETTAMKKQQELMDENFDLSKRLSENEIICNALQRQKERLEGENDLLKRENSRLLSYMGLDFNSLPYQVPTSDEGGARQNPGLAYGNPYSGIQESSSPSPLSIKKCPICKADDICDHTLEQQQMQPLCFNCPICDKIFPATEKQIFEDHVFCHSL
# B8: E3 ubiquitin-protein ligase LNX (Homo sapiens), Q8TBB1 (parent)
# chain: B1 chain
# partner: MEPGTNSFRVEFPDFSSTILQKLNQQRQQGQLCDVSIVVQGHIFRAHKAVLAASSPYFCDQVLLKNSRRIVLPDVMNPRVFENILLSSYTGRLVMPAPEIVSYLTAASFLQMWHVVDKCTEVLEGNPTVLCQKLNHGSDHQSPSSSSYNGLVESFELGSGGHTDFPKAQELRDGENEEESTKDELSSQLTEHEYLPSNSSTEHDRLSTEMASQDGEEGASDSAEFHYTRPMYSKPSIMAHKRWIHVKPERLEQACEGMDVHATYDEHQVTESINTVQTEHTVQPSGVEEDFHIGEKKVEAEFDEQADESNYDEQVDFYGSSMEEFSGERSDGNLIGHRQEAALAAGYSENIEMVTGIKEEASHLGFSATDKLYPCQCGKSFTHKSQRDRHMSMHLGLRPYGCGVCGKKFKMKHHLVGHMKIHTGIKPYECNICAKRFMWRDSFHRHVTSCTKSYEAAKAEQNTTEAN
# Variants of: B1
# Settings: with khdr3_human KHDRBS3, O75525
row,Variant,effect of a mutation on the interaction
1,E295K,disrupting interaction strength

# Variants of: B2
# Settings: with fsbp_human FSBP
row,Variant,effect of a mutation on the interaction
1,E295K,disrupting interaction strength

# Variants of: B3
# Settings: with aimp2_human AIMP2, Q13155
row,Variant,effect of a mutation on the interaction
1,E295K,disrupting interaction strength

# Variants of: B4
# Settings: with mtnb_human APIP
row,Variant,effect of a mutation on the interaction
1,E295K,disrupting interaction strength

# Variants of: B5
# Settings: with fhl3_human FHL3, Q13643
row,Variant,effect of a mutation on the interaction
1,E295K,disrupting interaction strength

# Variants of: B6
# Settings: with zf64b_human ZFP64, Q9NTW7
row,Variant,effect of a mutation on the interaction
1,E295K,disrupting interaction strength

# Variants of: B7
# Settings: with caco2_human CALCOCO2, Q13137
row,Variant,effect of a mutation on the interaction
1,E295K,disrupting interaction strength

# Variants of: B8
# Settings: with zbt43_human ZBTB43, O43298
row,Variant,effect of a mutation on the interaction
1,E295K,disrupting interaction strength
